# From the supplement of paper PMC12042874
# ± gives the uncertainty stated by the source.
# Test: amyloid nucleation score (Sup35N fusion, yeast selection) (log enrichment); library NNK3; higher = more nucleation; inactive = no reads after selection
# Summary of the method: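 Libraries of peptides of 20 random codons fused to Sup35N were expressed in psi-negative yeast and induced 24 hours with 100 μM copper sulfate. Selection was 7 days at 30°C on medium lacking adenine and uracil, and plasmid inserts were Illumina-sequenced before and after selection. Nucleation score is the DiMSum log enrichment of output over input reads, centred on the mode score of non-aggregating sequences, and sequences with under 100 input reads were left out.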
row,Substance,amyloid nucleation score
1,YETYSCEFFVYRLFCLNRSH,inactive
2,HQSNFGDMSLVSNGSFRKAK,inactive
3,GSGEVWWVGCRTFFKTG,inactive
4,WCQFSDLSVAFK,inactive
5,ARVKWMVGEIWCQSDDKPLE,inactive
6,YIRATCDSLCVISVWVLRFL,inactive
7,ACESCSFTSWRTYLCSKVRT,-0.172 ± 1.5
8,NKGSVDGYMFSTGVTFLMLE,inactive
9,TSTRSEAFRVVVTLPVAVNW,inactive
10,GCIRLGLNSVGVNNIVA,inactive
11,IFNWPSQTVLHIYKSAHVNM,2.35 ± 0.066
12,LIRNEGFCEKS,0.244 ± 0.14
13,SCCYAPRQPLWYASEFGVVG,inactive
14,TLVIHIN,inactive
15,IIMGV,inactive
16,NVRLYHFSGET,0.031 ± 0.41
17,ICELLRFDPMLTCFRM,0.77 ± 0.2
18,TYYLSMN,inactive
19,DKMIGWGDWSSLY,inactive
20,SRFDRVMQNDCCVYSCHIII,inactive
21,YVVEICAV,inactive
22,YNSFSDYYSVFTQHVRDS,inactive
23,QPPHKARGACYIRVFYRCTG,0.226 ± 0.68

row,Substance,amyloid nucleation score
1,DEMLHGCPDRVPNLGWY,inactive
2,VRSNVKDRFT,inactive
3,KRVSTDAW,inactive
4,AWVHNSVRRHSSPSPRLGGM,inactive
5,GIYVVLNCISIFRLWLLSER,inactive
6,LLIIGLKSAVGVW,inactive
7,MTPTMDENSFLDSSISQMLW,inactive
8,VRLTTWLAYNLMVSSDTMFC,inactive
9,NGMASMIRGIYNSVPHIRGL,inactive
10,MCEGAIQQRILLSMKFCCKW,0.037 ± 0.87
11,WGLGETCLKLSWPCRN,inactive
12,HSFTAMLICSAYASAARYLR,inactive
13,FLNCSSQKNATPHILFNGGM,inactive
14,QKVVFW,inactive
15,IRGEFLQQPFIVDRNHVRWL,inactive
16,VLTLLMKVEHTGVSHSVGRV,1.02 ± 0.19
17,TSYNFTQLTPILVKLMQMNL,inactive
18,KIHCAESATVVLWVRVGDCR,inactive
19,CNFDKTLRSHDDQLAVGITV,inactive
20,LFCGT,inactive
21,WGKTRFWRVSSWLLNDVWRV,inactive
22,HMSQLTLYCCAKIRKVVPLL,inactive
23,MEYRHCSFNRSRTRTLYRMN,inactive

row,Substance,amyloid nucleation score
1,NAVRLVGSPAVVVSTMGHN,inactive
2,NFFCSA,inactive
3,RIFFKVCNVRLSVADFSHYV,1.99 ± 0.051
4,TCVIKGGCCGLN,-0.955 ± 2.5
5,WLCLEYMVDEADNFSDGAWM,inactive
6,CQLRGEFDSVAVNNVCIAML,inactive
7,LDFANCFLVQCL,inactive
8,NGEKLFSEDVVSYWVDVYSR,inactive
9,NLLSAVY,0.787 ± 0.28
10,SLSVSYDVLWRIFSGNNGNW,1.25 ± 0.083
11,KSLTDHVNRSFLMVGVWMVK,inactive
12,YNDDKYCFDMNCMSPRYRGD,-0.191 ± 0.4
13,ILEVGRQCMDGFCSKFNGEY,inactive
14,KWIVQAILSSEL,inactive
15,TSWLVWRKGNGLGGNGQQRR,inactive
16,GVCASNQLALKCTYVPMSVR,inactive
17,QVLCWFISTADLLLAK,inactive
18,LASSQLIYRTSRTCPTLLPL,1.3 ± 0.1
19,LMRNRFFNPVSGTFTASIGQ,-0.302 ± 1.1
20,VLWAFNLMLVDWRIRFQNWA,inactive
21,NLFVNL,1.13 ± 0.15
22,LCCTRTSHIMSRVARMAFRV,inactive
23,AWYSDCRCVKPHVGRGNWCM,inactive

row,Substance,amyloid nucleation score
1,VQVLYVICLSSSMLYRLVVR,inactive
2,RNGMISQAYSVP,inactive
3,MSLVFRMSPHIQLVGWVHGR,inactive
4,SSANVDMPVDCDTRWTCW,inactive
5,FQPSSASPIGWIGMSAFDSW,inactive
6,VLKLRVKVNQVVVDYVLESG,inactive
7,TLYFYNTCLRQCKQYFIDFR,0.305 ± 0.16
8,DVNGR,inactive
9,GWFSYSRMSNCSLNSTK,inactive
10,LLFALDGFIAGWMCMWGDRF,inactive
11,KPWIFMESRDM,inactive
12,NSVHREECFLITF,inactive
13,TLHIF,inactive
14,GVHVVYCVRFSEGIVYTSGF,0.906 ± 0.2
15,GVLLKVSR,inactive
16,IPYSTHRINSILISLSWFCV,0.691 ± 0.2
17,SILLVMP,inactive
18,ITYSMLVVVQNLA,1.75 ± 0.1
19,IVLTFYIYRNSYCSAV,0.89 ± 0.092
20,GAGPGLITMSNSN,inactive
21,SSMCVLCWTIVSVRNEAVEG,1.9 ± 0.098
22,IVRSF,inactive
23,VAAMSVFSVGCLINIALRSN,0.93 ± 0.2

row,Substance,amyloid nucleation score
1,HVFYPALI,inactive
2,WAFGYFGCYFQFLVLQDSVG,1.87 ± 0.1
3,ISKSHGYLYSNWKTCFSELS,inactive
4,ARLAYMYMEDGKCSTHRGKF,inactive
5,YAIAAYFDKRRIVGWVINCS,inactive
6,YDKCLQCARRHNSSILSPTG,inactive
7,NLTVGSTILIPC,inactive
8,QCQFYTSMMSAR,inactive
9,LVSMWMQASILLYCNGSNHW,1.61 ± 0.11
10,LGRANIHATIACM,inactive
11,EEGATVRTPLATRPGRTLK,inactive
12,RMLRNF,-0.466 ± 1.9
13,NVFMTWYTARGFMCYPSWDR,0.324 ± 0.43
14,WTRGNRHVVLQLLGQVSF,inactive
15,HLRCFKMKFNSHFLVWGAGA,inactive
16,DRCNVGRYLG,inactive
17,YDCFFTEIAVVVNIE,inactive
18,TLGTLSICLCIFRYPGKTEA,inactive
19,GIVALCRTCDNRRMRVSVGV,inactive
20,EMCRN,inactive
21,LDAWRWMSLTADYGKSLVTR,inactive
22,SCSDW,inactive
23,CAYDINYLCSREWVSNSCWG,inactive

row,Substance,amyloid nucleation score
1,FDFESRKLVVGICGCSQAGL,inactive
2,TLRDKNLLEPIKCDWYTIKT,inactive
3,GYGCVTKV,inactive
4,YEQHSY,inactive
5,LYHFANIFSFC,inactive
6,RFGDVHDCVVVSNGNLRNES,inactive
7,ALKSPDSD,inactive
8,SCFVCNF,2.86 ± 0.059
9,CFETCLSAVGHSIQAQKLSG,0.193 ± 0.29
10,FCFQAFF,inactive
11,CAFVDSISCLPLFR,inactive
12,FACFAVIILHVIMYVRMSSV,inactive
13,AYALALCLRE,inactive
14,RTCSQTIDIGVRNWINEQIM,inactive
15,DNQFICLFVVEIGIVYDSYA,inactive
16,GFCKIAAMGFAYHDGAFDGF,inactive
17,SLRPMLYTSYSS,0.914 ± 0.17
18,GRSMLMLRTYNM,-0.056 ± 0.78
19,SFRSNVGFEVFLIATELRFC,inactive
20,EFPASNLSMLGWN,inactive
21,HTMAHWITKEAAFLI,inactive
22,NYWEIEYGVAGCSFLEGMRH,inactive
23,WYHVSHVYYGVGIGLRD,inactive

row,Substance,amyloid nucleation score
1,ILINSRFMRFVFRAGHRV,inactive
2,ANKPWVNDIFPT,inactive
3,FKLDSMCRLKRAAN,inactive
4,VYNTGFLGPVSFSAGKFLML,0.943 ± 0.13
5,VVSLESSAVVNGWLWVLAGA,inactive
6,RYCVFSLT,inactive
7,DQEVC,inactive
8,YCVYQWLSYSVCLFNLMECT,inactive
9,KGDCQWVVPYVIHSNHVRAG,inactive
10,LFLKSLCCFRICTNFIKVEL,inactive
11,QDFKCRRGNY,inactive
12,PAKPGL,inactive
13,AEIKMLLLQIHDS,0.078 ± 0.23
14,FATVDDMSTGFRYIFLITRA,inactive
15,QSDHTLPMCRSSLRICVSGR,1.75 ± 0.07
16,RINSRHLLNVLAVRKTIQGS,inactive
17,SFLSNCSFPDRSMKAYFIYY,0.939 ± 0.11
18,LSSDGFYFNTEYL,inactive
19,CADVTTTHGGLYVGPSSTAT,inactive
20,TWCGFWTLMERVYHRRWTSL,inactive
21,HSFIYVLDVLNVR,inactive
22,CHWNYTKIRHFYEVVGDQTG,inactive
23,YADRRIFSVS,inactive
